From the RNAGym collection of RNA variant scans (doi:10.1073/pnas.2313332121)
Fewer inactive variants are shown than the library holds.

B1: TPR 5TU (parent)
chain: GGAUCUUCUCGAUCUAACAAAAAAGACAAAUCUGCCACAAAGCUUGAGAGCAUCUUCGGAUGCAGAGGCGGCAGCCUUCGGUGGCGCGAUAGCGCCAACGUUCUCAACUAUGACACGCAAAACGCGUGCUCCGUUGAAUGGAGUUUAUCAUG

Variants of: B1
Assay: polymerase ribozyme fitness, log enrichment relative to wild type (log ratio); higher = more active; in vitro selection for triplet polymerase activity
Method in brief: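 Fitness measures genotype enrichment against wild-type enrichment on a logarithmic scale, with inverse-variance-weighted averaging of replicates. The logarithm is base 2, and genotypes were kept only with ≥10 input reads and ≥1 read per output in Illumina sequencing. The sequenced libraries came from one triplicate in vitro selection round, including frozen incubation at −7 °C, of PCR-built, transcribed mutant libraries of each subunit of a heterodimeric triplet polymerase ribozyme.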

Variant | polymerase ribozyme fitness (log ratio)
GGAUCUUCUCGAUCUAACAAAAAAGACAAAUCUGCCACAAAGCUUGAGAGCAUCUUCGGGUGCAGAGGCGGCAGCCUUCGGUGGCGCGAUAGCGCCAACGUUCUCAACUAUGACAUGCAAAACGCGUGCUCCGUUGAAUGGAGUUUAUCAUG [A60G C116U] | 0.141
GGAUCUUCUCGAUCUAACAAAAAAGACAAAUCUGCCACAAAGCUUGAGAGCAUCUUCGGGUGCAGAGGCGGCAGCCUUCGGUGGCGCGAUAGCGCCAACGUUCUCAACUAUGACACGCAAAAUACGUGCUACGUUGAAUGGAGUUUAUCAUG [A60G C123U G124A C131A] | -2.39
GGAUCUUCUCGAUCUAACAAAAAAGACAAAUCUGCCACAAAGCUUGAGAGCAUCUUCGGGUGCAGAGGCGGCAGCCUUGGGUGGCGCGAUAGCGCCAACGUUCUCAACUAUGACACGCAAAACGCGUGCUCCGUUGAAUGGAGUUUAUCAUG [A60G C79G] | -3.75
GGAUCUUCUCGAUCUAACAAAAAAGACAAAUCUGCCACAAAGCUUGAGAGCAUCUUCGGGUGCAGAGGCGGCAGCCUUCGGUGGCGCGAUAGGGCCAACGUUCUCAACUAUGACACGCAAAACGCGUGCUCCGUUGAAUGGAGUUUAUCAUG [A60G C93G] | -3.44
GGAUCUUCUCGAUCUAACAAAAAAGACAAAUCUGCCACAAAGCUUGAGAGCAUCUUCGGGUGCAGAGGCGGCAGCCUUCGGUGGCGCGAUAGCGCCAACGUUCUCAACUAUGACACGCAAAACGCGUGGUCCGUUGAAUGGAGUUUAUCAUG [A60G C129G] | -2.25
GGAUCUUCUCGAUCUAACAAAAAAGACAAAUCUGCCACAAAGCUUGAGAGCAUCUUCGGGUGCAGAGGCGGCAGCCUUCGGUGGCGCGAUAGCGCCAACGUUCUGAACUAUGACACGCAAAACGCGUGCUCCGUUGAAUGGAGUGUAUCAUG [A60G C105G U145G] | -1.64
GGAUCUUCUCGAUCUAACAAAAAAGACAAAUCUGCCACAAAGCUUGAGAGCAUCUUCGGGUGCAGAGGCGGCAGCAUUCGGUGGCGCGAUGGCGUCAACGUUCUCACCUAUGACACGCAAAACGCGUGCUCCGUUGAAUGGAGUUUAUCAUG [A60G C76A A91G C95U A107C] | ≤ -4.2
GGAUCUUCUCGAUCUAACAAAAAAGACAAAUCUGCCACAAAGCUUGAGAGCAUCUUCGGGUGCAGAGGCGGCAGCCUUCGGUGGCGUGAUAGCGCCAACGAUCUCAACUAUGACACGCAAAACGCGUGCUCCGUUGAAUGGAGUUUAUCAUG [A60G C87U U101A] | -0.517
GGAUCUUCUCGAUCUAACAAAAAAGACAAAUCUGCCACAAAGCUUGAGAGCAUCUUCGGGUGCAGAGGCGGCAGGCUUCGCUGGCGCGAUAGCUCCAACGUUAUCAUCUAGGACACGCAAAACGCGUGCUCCGUUGAAUGGAGUUUAUCAUG [A60G C75G G81C G94U C103A A107U U111G] | ≤ -4.2
GGAUCUUCUCGAUCUAACAAAAAAGACAAAUCUGCCACAAAGCUUGAGAGCAUCUUCGGGUGCAGAGGCGGCAGCCUUCGGUGGGGCGAUAGCACCAACGUUCUCAACUAUGACACGCAAAACGCGUGCUCCGUUGAAUGGAGUUUAUCAUG [A60G C85G G94A] | -0.0985
GGAUCUUCUCGAUCUAACAAAAAAGACAAAUCUGCCACAAAGCUUGAGAGCAUCUUCGGGUGCAGAUGCGGCAGCCUUCGGUGGCGCGAUAGUGCCAAUGUUCUCAACUAUGACACGCAAAACGCGUGUUCCGUUGAAUGGAGUUUAUCAUG [A60G G67U C93U C99U C129U] | ≤ -4.2
GGAUCUUCUCGAUCUAACAAAAAAGACAAAUCUGCCACAAAGCUUGAGAGCAUCUUCGGGUGCAGAGGCGGCAGCCUUCGGUGGCGCGAUAGCGUAAACGUUCUCAACUAUGACACGCAAAACGCGUGCUCCGUUGAAUGGAGUUUAUCAUG [A60G C95U C96A] | -1.03
GGAUCUUCUCGAUCUAACAAAAAAGACAAAUCUGCCACAAAGCUUGAGAGCAUCUUCGGGUGCAGAGUCGGCAGCCUUCCGUGGCGCGAUAGCGCCAACGUUCUCAACUAUGACACGCAAAACGCGUGCUCCGUUGAAAGGAGUUUAUCAUG [A60G G68U G80C U139A] | ≤ -4.2
GGAUCUUCUCGAUCUAACAAAAAAGACAAAUCUGCCACAAAGCUUGAGAGCAUCUUCGGGUGCAGAGGCGGCAGCCUUCGGUGGCGCGAUAGCGUCAACGUUCUCAACUAUGACACGCAAAACGCGUGCUCCGUUGAAUGGAGUUUAUCAUG [A60G C95U] | -0.927
GGAUCUUCUCGAUCUAACAAAAAAGACAAAUCUGCCACAAAGCUUGAGAGCAUCUUCGGGUGCAGAGGCGGCAGCCUUCGGUGGCGCGAUAGCGCCAAUGUUCUCAACUAUGACACGCAAAACGCGUGCUCCGUUGAAUGGAGUUUAUCCUG [A60G C99U A150C] | -4.02
GGAUCUUCUCGAUCUAACAAAAAAGACAAAUCUGCCACAAAGCUUGAGAGCAUCUUCGGGUGCAGAGGCGGCAGCCUUCGGUGGCGCGAUAGAGCCCACGUUCUCAACUUUGACACGCAAAAUGCGUGCGCCAUUGAAUGGAGUUUAUCAUG [A60G C93A A97C A110U C123U U130G G133A] | ≤ -4.2
GGAUCUUCUCGAUCUAACAAAAAAGACAAAUCUGCCACAAAGCUUGAGAGCAUCUUCGGGUGCAGAGGCGGCAGGCUUCGGUGGCGCGAUAGCGCCAACGUUCUCAACUAUGACACGCAAAACGCGUGCUCCGUUGAAUGGAGUUUAUCAUG [A60G C75G] | -2.36
GGAUCUUCUCGAUCUAACAAAAAAGACAAAUCUGCCACAAAGCUUGAGAGCAUCUUCGGGUGCAGAGGCGGCAGCCUUCGGUGGCGCGAUAGCGCGAACGUUCUCAACUAUGACACGCAAAACGCGUGCUCCGUUGAAUGGAGUUUAUCAUG [A60G C96G] | -0.394
GGAUCUUCUCGAUCUAACAAAAAAGACAAAUCUGCCACAAAGCUUGAGAGCAUCUUCGGGUGCAGAGGCGGCAGCCUUCGGUGGCGCGAUAGGGCCAACGUUCUCAACUAUGACACGCAAAACGCGUGCUCCGUUGAAUGGAGUUUGUCAUG [A60G C93G A147G] | -4.1
